Substitutions are numbered along the chain they refer to.
T1: murine HVEM (murine, UniProt Q80WM9 39-206, limits assumed)
T1 construct: also called Mouse
T1 sequence (looked up): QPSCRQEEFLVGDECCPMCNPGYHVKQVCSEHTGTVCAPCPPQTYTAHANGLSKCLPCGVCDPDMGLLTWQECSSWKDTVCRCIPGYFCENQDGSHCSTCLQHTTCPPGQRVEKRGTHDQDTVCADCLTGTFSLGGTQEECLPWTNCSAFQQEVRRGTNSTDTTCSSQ

T2: human HVEM (human, UniProt Q92956 39-202, limits assumed)
T2 sequence (looked up): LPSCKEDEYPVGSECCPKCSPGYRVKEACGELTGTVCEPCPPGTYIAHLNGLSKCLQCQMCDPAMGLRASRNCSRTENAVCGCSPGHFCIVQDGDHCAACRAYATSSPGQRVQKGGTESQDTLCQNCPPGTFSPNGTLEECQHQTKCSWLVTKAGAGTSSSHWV

T3: cynomolgus monkey HVEM (cynomolgus monkey, UniProt A0A2K5W0R1 39-203)
T3 sequence: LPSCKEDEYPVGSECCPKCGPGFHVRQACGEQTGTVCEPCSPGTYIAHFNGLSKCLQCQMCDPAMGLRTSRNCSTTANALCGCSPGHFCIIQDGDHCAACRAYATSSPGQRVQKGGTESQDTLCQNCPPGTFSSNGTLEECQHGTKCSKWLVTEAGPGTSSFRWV

T4: His-tagged human HVEM (human, UniProt Q92956 39-202, limits assumed)
T4 construct: Analyte of the BLI assay, 200 nM in PBS; not shown: His tag
T4 sequence (looked up): T2 sequence (looked up)

B1: Ab_049 (H5S19-25A24A) (antibody, V domains shown)
VH: QVQLQQSGAELMKPGASVKISCKATGYTFSSYWIEWVKQRPGHGLEWIGEILPGSGSTNYNEKFKGKATFTADTSSNTAYMQLSSLTSEDSAVYYCARYPRWGKIDYWGQGTTLTVSS
VL: DIVMTQAAFSNPVTLGTSASISCRSSKSLLHSNGITYLYWYLQKPGQSPQLLIYQMSNLASGVPDRFSSSGSGTDFTLRISRVEAEDVGVYYCAQNLELPYTFGGGTKLEIK
notes: also called Ab_49
B2: Ab_002 (H5S14-2A2A) (antibody, V domains shown)
VH: QVQLQQPGAELVKPGTSVKMSCKASGYTFTSYWMHWVKQRPGQGLEWIGDIYPGSDSTNYNEKFKSKATLTVDTSSSTAYMQLSSLTSEDSAVYYCARSGYYGSYLDYWGQGTTLTVSS
VL: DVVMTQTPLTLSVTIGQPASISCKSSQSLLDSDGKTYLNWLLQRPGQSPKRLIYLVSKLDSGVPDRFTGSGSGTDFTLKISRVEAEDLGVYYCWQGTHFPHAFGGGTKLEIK
notes: also called Ab_2
B3: Ab_018 (H5S14-21A19A) (antibody, V domains shown)
VH: QVQLQQPGSELVRPGASVKLSCKASGYTFTSYWMHWVKQRPGQGLEWIGNIYPGSGSTNYDEKFKSKATLTVDTSSSTAYMQLSSLTSEDSAVYYCTIYDGYYWGQGTLVTVSA
VL: DIQMTQSPASLSVSVGETVTITCRASENIYSNLAWYQQKQGKSPQLLVYAATNLADGVPSRFSGSGSGTQYSLKINSLQSEDFGSYYCQHFWGTPRTFGGGTKLEIK
notes: the values of that row are written under this molecule; also called Ab_18; Ab_018 and Ab_019
B4: Ab_056 (H5S19-11A9B) (antibody, V domains shown)
VH: DVQLQESGPGLVNPSQSLSLTCTVTGYSITSDYAWNWIRQFPGNKLEWMGYISYSGNTGYNPSLKSRISITRDTSKNQFFLQLNSVTSEDTATYYCARWGLRIDYWGQGTTLTVSS
VL: DIKMTQSPSSMYASLGESVTITCKASQDINSYLSWFQQKPGKSPKTLIYRANRLVDGVPSRFSGSGSGQDYSLTISSLEFEDMGIYYCLQYDEFPFTFGSGTKLEMK
notes: also called Ab_56
B5: Ab_014 (H5S14-15A12A) (antibody, V domains shown)
VH: QVQLKQSGPGLVQPSQSLSITCTVSGFSLTSYGVHWVRQSPGKGLEWLGVIWSGGSTDYNAAFICRLSISKDSSKSQVFFKMNSLQADDTAMYYCARNLGGSWVDYWGQGTSVTVSS
VL: ETTVTQSPASLSVATGEKVTIRCITSTDIDDDMNWYQQKPGEPPKLLISEGNTLRPGVPSRFSSSGYGTDFVFTIENTLSEDVADYYCLQSDNMPYTFGGGTKLEIK
notes: also called Ab_14
B6: Ab_003 (H5S14-3A3A) (antibody, V domains shown)
VH: QIQLVQSGPELKKPGETVKISCKASGYTFTNYGVNWVKQAPGKDLKWMGWINTYTGEPTYADDFKGRFAFSLETSASTAYLQINNLKNEDMATYFCTSRSWVLWGQGTLVTVSA
VL: QIVLTQSPAIMSASLGEEITLTCSASSSVSYMQWYQQKSGTSPKLLIYSTSNLASGVPSRFSGSGSGTFYSLTISSVEAEDAADYYCHQWSSYPTFGGGTELEI
notes: also called Ab_3
B7: Ab_084 (H5S20-51A40A) (antibody, V domains shown)
VH: QVQLKQSGPGLVQPSQSLSITCTVSGFSLTSYGVHWVRQSPGKGLEWLGVIWRGGSTDYNAAFMSRLSITKDNSKSQVFFKMNSLQADDTAIYYCAKNRGYGEGYYAMDYWGQGTSVTVSS
VL: DIVMTQSQKFMSTSVGDRVSVTCKASQNVGTNVAWYQQKPGQSPKALIYSASYRYSGVPDRFTGSGSGTDFTLTISNVQSEDLAEYFCQQYNSYPLTFGAGTKLELK
notes: also called Ab_84
B8: Ab_059 (H5S19-3B10B) (antibody, V domains shown)
VH: QIQLVQSGPELKKPGETVKISCKASGYTFTNFGVNWVKQAPGKGLKWMGWINTYTGEPTYADDFKGRFAFSLETSASTAYLRINNLKNEDTATYFCARSFYKNYAFWGQGTILTVSS
VL: QIVLTQSPAIMSASPGEKVTLTCSASSSVDSSYLFWYQQKPGSSPKLWIYSTSNLASGVPARFSGSGSGTSYSLTISSMEAEDAASYFCHQWSSYPWTFGGGTILEI
notes: also called Ab_59
B9: Ab_016 (H5S14-17A15A) (antibody, V domains shown)
VH: QVQLQQSGAELVRPGTSVKMSCKAAGYTFTNYWIGWVKQRPGHGLEWIGDIYPGGGYTNYNEKFKGKATLTADTSSSTAYMQLSSLTSEDSAIYYCARNGNSLDYWGQGTTLTVSS
VL: SIVMTQTPKFLLVSAGDRVTITCKASQSVSNDVAWYQQKPGQSPKLLIYYESNRYTGVPDRFTGSGYGTDFTFTISTVQAEDLAVYFCQQDYSSPWTFGGGTKLEIK
notes: also called Ab_16
B10: Ab_017 (H5S14-18A16A) (antibody, V domains shown)
VH: EVQLVETGGGLVQPKGSLKLSCAASGFTFNTNAMNWVRQAPGKGLEWVARIRSKSNNYATYYADSVKDRFTISRDDSQSMLYLQMNNLKTEDTAMYYCVREGGYGNYPYFDYWGQGTTLTVSS
VL: B9 VL with E51A
notes: also called Ab_17
B11: Ab_007 (H5S14-6A6A) (antibody, V domains shown)
VH: EVKLVESGGGLVQPGGSLRLSCATSGFTFTDYYMSWVRQTPGKALEWLGFIRNQANAYTTEYSVSVKGRFTISRDNSQSILYLQMNTLRVEDSATYYCARVPDYWGQGTTLTVSS
VL: DIQMTQSPASQSASLGESVTITCLASQTIGTWLAWYQQKPGKSPQLLIYAATSLADGVPSRFSGSGSGTKFSFKISSLQAEDFVSYYCQQLHSTPYTFGGGTKLEIK
notes: also called Ab_7
B12: Ab_015 (H5S14-16A13A) (antibody, V domains shown)
VH: EVQLVESGGGLVKPGGSLKLSCAASGFTFSDYYMYWVRQTPEKRLEWVATISDGGSYTYYPDSVKGRFTISRDNAKNNLYLQMSSLKSEDTAMYYCARDGNYYAMDYWGQGTSVTVSS
VL: DVLMTQTPLSLPVSLGDQASISCRSSQSIVHSNGNTYLEWYLQKPGQSPKLLIYKVSNRFSGVPDRFSGSGSGTDFTLKISRVEAEDLGVYYCFQGSHVPWTFGGGTKLEIK
notes: also called Ab_15
B13: Ab_057 (H5S19-5A7A) (antibody, V domains shown)
VH: DVKLVESGGGLVKPGGSLKLSCAASGFTFSSYTMSWVRQTPEKRLEWVATISSGGSYTYYPDSVKGRFTISRDNAKNTLYLQMSSLKSEDTAMYYCTRGDDYGFDYWGQGTTLTVSS
VL: B12 VL
notes: also called Ab_57
B14: Ab_086 (H5S20-56A25A) (antibody, V domains shown)
VH: EVKLVESGGGLVKPGGSLKLSCAASGFTFSSYGMSWVRQTPEKRLEWVATISGGGSYTFYPDSVKGRFTISRDNAKNNLYLQVSSLRSEDTALYYCIYDGSYWGQGTLVTVSA
VL: not shown
notes: also called Ab_86
B15: Ab_022 (H5S14-23A21A) (antibody, V domains shown)
VH: LVKTGASVKISCKASGYSFTGYYMHWVKQSHGKSLEWIGYISCYNGATSYNQKFKGKATFTVDTSSSTAYMQFNSLTSEDSAVYYCARTYYYGSSYGAMDYWGQGTSVTVSS
VL: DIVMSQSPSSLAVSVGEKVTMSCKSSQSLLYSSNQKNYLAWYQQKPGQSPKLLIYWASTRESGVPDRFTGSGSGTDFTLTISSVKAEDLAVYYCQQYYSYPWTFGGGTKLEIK
notes: also called Ab_22
B16: Ab_044 (H5S15-30A26A) (antibody, V domains shown)
VH: QVQLQQPGAELVKPGAPVKLSCKASGYTFTSYWMNWVKQRPGRGLEWIGRIDPSDSETHYNQKFKDKATLTVDKSSSTAYIQLSSLTSEDSAVYYCAREYYGNHFDYWGQGTTLTVSS
VL: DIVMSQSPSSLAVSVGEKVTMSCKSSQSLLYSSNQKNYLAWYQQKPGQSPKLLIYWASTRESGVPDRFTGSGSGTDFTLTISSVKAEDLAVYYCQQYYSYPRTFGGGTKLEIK
notes: also called Ab_44

The binders below were run against T1, murine HVEM (assay: ELISA).

Row | Binder | ELISA signal
1 | B1 | 0.044
2 | B2 | 0.043
3 | B3 | 0.043
4 | B4 | 0.043
5 | B5 | 0.049
6 | B6 | 0.051
7 | B7 | 0.043
8 | B8 | 0.043
9 | B9 | 0.042
10 | B10 | 0.044
11 | B11 | 0.042
12 | B12 | 0.042
13 | B13 | 0.045
14 | B14 | 0.044

What follows are binders tested against T2, human HVEM (assay: ELISA).

Row | Binder | ELISA signal
15 | B15 | 0.157
16 | B16 | 2.87
17 | B2 | 2.8
18 | B5 | 0.05
19 | B8 | 0.462
20 | B9 | 0.047
21 | B10 | 0.051
22 | B11 | 2.56
23 | B12 | 0.045

What follows are binders tested against T3, cynomolgus monkey HVEM (assay: ELISA).

Row | Binder | ELISA signal
24 | B15 | 0.165
25 | B1 | 0.065
26 | B2 | 1.98
27 | B3 | 0.059
28 | B4 | 0.06
29 | B5 | 0.064
30 | B6 | 2.29
31 | B7 | 0.061
32 | B9 | 0.061
33 | B10 | 0.06
34 | B11 | 0.739
35 | B12 | 0.058
36 | B13 | 1.06
37 | B14 | 0.065

The binders below were run against T4, His-tagged human HVEM (assay: BLI OctetRed96, mAb captured, 200 nM His-HVEM).
Procedure: Binding of antibodies to HVEM may also be determined by bio-layer interferometry (BLI) on an OctetRed96@ system (Sartorius). (See http://www.fortebio.com/bli_technology.html for general description of a BLI assay.) For this experiment, murine anti-human HVEM antibodies were captured from culture supernatant using anti-mouse IgG Fc capture and immobilized to dip and read biosensors. Sensors were then dipped into a solution of 200 nM His-tagged human HVEM in phosphate-buffered saline (PBS). Probes were dipped into PBS assay buffer and the dissociation rate (koff) was measured. The association rate (kₒₙ) and affinity (KD) were determined by curve fitting analysis.

Row | Binder | Kd | koff | kon
38 | B16 | 1.97 nM | 0.00605 s⁻¹ | 3.08e+06 M⁻¹ s⁻¹
